We go through 1 molecule from paper PMC5587741, “CLEC14a-HSP70-1A interaction regulates HSP70-1A-induced angiogenesis” (Scientific Reports, 2017).

The target in the assay is T1, recombinant human HSP70-1A (rhHSP70-1A) (human, UniProt P0DMV8 1-641).
T1 construct: commercially available purified recombinant human HSP70-1A (HSPA1A); source: bought: Sino Biological Inc
Nature of the assay: BLI; Octet RED96; rhCLEC14a-ECD immobilised on amine-reactive biosensors; rhHSP70-1A 200-25 nM in 2-fold dilutions in 1x kinetics buffer; 1:1 binding model. To be noted: both partners purified. (In general: BLI is a label-free optical method that tracks binding on a fibre tip over time.)

T1 sequence (P0DMV8 whole entry): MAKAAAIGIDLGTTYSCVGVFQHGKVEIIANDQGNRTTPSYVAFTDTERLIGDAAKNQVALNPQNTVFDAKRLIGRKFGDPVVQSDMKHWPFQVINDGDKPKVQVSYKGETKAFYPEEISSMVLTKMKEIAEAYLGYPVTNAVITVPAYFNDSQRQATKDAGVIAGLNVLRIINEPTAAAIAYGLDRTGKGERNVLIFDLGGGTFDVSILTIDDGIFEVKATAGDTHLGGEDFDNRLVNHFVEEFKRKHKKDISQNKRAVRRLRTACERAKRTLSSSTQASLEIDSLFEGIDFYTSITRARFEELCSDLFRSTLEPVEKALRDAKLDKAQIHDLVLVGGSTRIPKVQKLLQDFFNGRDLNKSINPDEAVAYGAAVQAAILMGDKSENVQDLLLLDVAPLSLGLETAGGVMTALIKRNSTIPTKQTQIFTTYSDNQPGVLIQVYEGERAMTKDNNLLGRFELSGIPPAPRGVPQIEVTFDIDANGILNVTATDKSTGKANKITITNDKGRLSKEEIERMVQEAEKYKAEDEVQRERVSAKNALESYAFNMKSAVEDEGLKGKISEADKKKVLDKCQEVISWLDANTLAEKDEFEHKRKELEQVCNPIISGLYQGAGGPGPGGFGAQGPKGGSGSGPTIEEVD

B1: recombinant human CLEC14a extracellular domain (rhCLEC14a-ECD) (domain or fragment, UniProt Q86T13 22-397, looked up)
chain: EHPTADRAGCSASGACYSLHHATMKRQAAEEACILRGGALSTVRAGAELRAVLALLRAGPGPGGGSKDLLFWVALERRRSHCTLENEPLRGFSWLSSDPGGLESDTLQWVEEPQRSCTARRCAVLQATGGVEPAGWKEMRCHLRANGYLCKYQFEVLCPAPRPGAASNLSYRAPFQLHSAALDFSPPGTEVSALCRGQLPISVTCIADEIGARWDKLSGDVLCPCPGRYLRAGKCAELPNCLDDLGGFACECATGFELGKDGRSCVTSGEGQPTLGGTGVPTRRPPATATSPVPQRTWPIRVDEKLGETPLVPEQDNSVTSIPEIPRWGSQSTMSTLQMSLQAESKATITPSGSVISKFNSTTSSATPQAFDSSSA
notes: commercially available purified recombinant human CLEC14a extracellular domain; source: bought: Abcam
As a reminder, the Kd is the free concentration of one partner at which half of the binding sites on the other are occupied at equilibrium, for simple one-to-one binding. Regarding B1, the dissociation constant Kd was around 8 nM.
